According to US20120214741:

T1: VDAC of isolated rat mitochondria (liver, brain), Q9Z2L0
T1 chain: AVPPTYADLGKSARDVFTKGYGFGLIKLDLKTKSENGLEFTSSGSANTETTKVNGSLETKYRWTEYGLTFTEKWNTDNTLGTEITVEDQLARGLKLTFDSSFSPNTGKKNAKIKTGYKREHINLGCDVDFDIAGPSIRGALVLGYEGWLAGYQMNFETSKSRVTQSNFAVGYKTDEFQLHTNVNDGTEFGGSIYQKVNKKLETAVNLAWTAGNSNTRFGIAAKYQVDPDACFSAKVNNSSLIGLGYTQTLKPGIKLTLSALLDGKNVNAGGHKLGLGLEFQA

T2: native mVDAC1 (mouse VDAC1), purified recombinant
T2 chain: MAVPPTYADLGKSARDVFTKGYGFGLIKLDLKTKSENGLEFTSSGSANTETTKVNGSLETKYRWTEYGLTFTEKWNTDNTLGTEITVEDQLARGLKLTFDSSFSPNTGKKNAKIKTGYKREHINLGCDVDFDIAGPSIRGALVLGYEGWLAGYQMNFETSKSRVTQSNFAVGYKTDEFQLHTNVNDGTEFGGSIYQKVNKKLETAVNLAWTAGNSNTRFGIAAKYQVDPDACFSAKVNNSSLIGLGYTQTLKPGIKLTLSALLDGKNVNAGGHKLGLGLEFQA

B1: Rat brain HK-I (hexokinase-I), purified (protein)
chain: MIAAQLLAYYFTELKDDQVKKIDKYLYAMRLSDEILIDILTRFKKEMKNGLSRDYNPTASVKMLPTFVRSIPDGSEKGDFIALDLGGSSFRILRVQVNHEKNQNVSMESEIYDTPENIVHGSGTQLFDHVADCLGDFMEKKKIKDKKLPVGFTFSFPCRQSKIDEAVLITWTKRFKASGVEGADVVKLLNKAIKKRGDYDANIVAVVNDTVGTMMTCGYDDQQCEVGLIIGTGTNACYMEELRHIDLVEGDEGRMCINTEWGAFGDDGSLEDIRTEFDRELDRGSLNPGKQLFEKMVSGMYMGELVRLILVKMAKEGLLFEGRITPELLTRGKFNTSDVSAIEKDKEGIQNAKEILTRLGVEPSDVDCVSVQHICTIVSFRSANLVAATLGAILNRLRDNKGTPRLRTTVGVDGSLYKMHPQYSRRFHKTLRRLVPDSDVRFLLSESGTGKGAAMVTAVAYRLAEQHRQIEETLAHFRLSKQTLMEVKKRLRTEMEMGLRKETNSKATVKMLPSFVRSIPDGTEHGDFLALDLGGTNFRVLLVKIRSGKKRTVEMHNKIYSIPLEIMQGTGDELFDHIVSCISDFLDYMGIKGPRMPLGFTFSFPCHQTNLDCGILISWTKGFKATDCEGHDVASLLRDAVKRREEFDLDVVAVVNDTVGTMMTCAYEEPTCEIGLIVGTGTNACYMEEMKNVEMVEGNQGQMCINMEWGAFGDNGCLDDIRTDFDKVVDEYSLNSGKQRFEKMISGMYLGEIVRNILIDFTKKGFLFRGQISEPLKTRGIFETKFLSQIESDRLALLQVRAILQQLGLNSTCDDSILVKTVCGVVSKRAAQLCGAGMAAVVEKIRENRGLDHLNVTVGVDGTLYKLHPHFSRIMHQTVKELSPKCTVSFLLSEDGSGKGAALITAVGVRLRGDPSIA
B2: trypsin-treated HK-I (protein)
chain: B1 chain
B3: chymotrypsin-treated HK-I (protein)
chain: FTELKDDQVKKIDKYLYAMRLSDEILIDILTRFKKEMKNGLSRDYNPTASVKMLPTFVRSIPDGSEKGDFIALDLGGSSFRILRVQVNHEKNQNVSMESEIYDTPENIVHGSGTQLFDHVADCLGDFMEKKKIKDKKLPVGFTFSFPCRQSKIDEAVLITWTKRFKASGVEGADVVKLLNKAIKKRGDYDANIVAVVNDTVGTMMTCGYDDQQCEVGLIIGTGTNACYMEELRHIDLVEGDEGRMCINTEWGAFGDDGSLEDIRTEFDRELDRGSLNPGKQLFEKMVSGMYMGELVRLILVKMAKEGLLFEGRITPELLTRGKFNTSDVSAIEKDKEGIQNAKEILTRLGVEPSDVDCVSVQHICTIVSFRSANLVAATLGAILNRLRDNKGTPRLRTTVGVDGSLYKMHPQYSRRFHKTLRRLVPDSDVRFLLSESGTGKGAAMVTAVAYRLAEQHRQIEETLAHFRLSKQTLMEVKKRLRTEMEMGLRKETNSKATVKMLPSFVRSIPDGTEHGDFLALDLGGTNFRVLLVKIRSGKKRTVEMHNKIYSIPLEIMQGTGDELFDHIVSCISDFLDYMGIKGPRMPLGFTFSFPCHQTNLDCGILISWTKGFKATDCEGHDVASLLRDAVKRREEFDLDVVAVVNDTVGTMMTCAYEEPTCEIGLIVGTGTNACYMEEMKNVEMVEGNQGQMCINMEWGAFGDNGCLDDIRTDFDKVVDEYSLNSGKQRFEKMISGMYLGEIVRNILIDFTKKGFLFRGQISEPLKTRGIFETKFLSQIESDRLALLQVRAILQQLGLNSTCDDSILVKTVCGVVSKRAAQLCGAGMAAVVEKIRENRGLDHLNVTVGVDGTLYKLHPHFSRIMHQTVKELSPKCTVSFLLSEDGSGKGAALITAVGVRLRGDPSIA

Legend:
[1] = biological target: T1, VDAC of isolated rat mitochondria …
[2] = biological target: E72Q-mVDAC1, purified recombinant
[3] = biological target: T2, native mVDAC1 (mouse VDAC1), purified …

Protein	PTP opening (Ca2+ accumulation and swelling of energized mitochondria) [1]	release of cytochrome c from mitochondria (Western blot) [1]	VDAC1 channel closure in a planar lipid bilayer (currents before and 5 min after HK-I, 28.6 mU/ml) [2]	VDAC1 channel closure in a planar lipid bilayer (currents before and 5 min after HK-I, 28.6 mU/ml) [3]	PTP opening (swelling of energized mitochondria) [1]
B1	HK-I inhibited PTP opening	HK-I prevented the release of cytochrome c from mitochondria	HK-I is able to close native VDAC1 but not mutated E72Q-VDAC1 (SEQ ID NO:43)	HK-I is able to close native VDAC1	–
B2	–	–	–	–	The failure of non-binding species of HK, such as yeast HK, or trypsin- or chymotrypsin-treated HK-I (FIG. 2D) to prevent PTP opening
B3	–	–	–	–	The failure of non-binding species of HK, such as yeast HK, or trypsin- or chymotrypsin-treated HK-I (FIG. 2D) to prevent PTP opening
